Laboratory results taken from PMC4658230.

B1: erCYP2E1 (Rattus norvegicus) (protein)
chain: MAVLGITIALLVWVATLLVISIWKQIYNSWNLPPGPFPLPILGNIFQLDLKDIPKSFTKLAKRFGPVFTLHLGSRRIVVLHGYKAVKEVLLNHKNEFSGRGDIPVFQEYKNKGIIFNNGPTWKDVRRFSLSILRDWGMGKQGNEARIQREAQFLVEELKKTKGQPFDPTFLIGCAPCNVIADILFNKRFDYNDKKCLRLMSLFNENFYLLSTPWIQLYNNFADYLRYLPGSHRKIMKNVSEIKQYTLEKAKEHLQSLDINCARDVTDCLLIEMEKEKHSQEPMYTMENVSVTLADLFFAGTETTSTTLRYGLLILMKYPEIEEKLHEEIDRVIGPSRVPAVRDRLDMPYMDAVVHEIQRFINLVPSNLPHEATRDTVFQGYVIPKGTVVIPTLDSLLYDSHEFPDPEKFKPEHFLNENGKFKYSDYFKAFSAGKRVCVGEGLARMELFLLLSAILQHFNLKSLVDPKDIDLSPVTVGFGSIPPQFKLCVIPRS
B2: mtCYP2E1 (Rattus norvegicus) (protein)
chain: AVLGITIALLVWVATLLVISIWKQIYNSWNLPPGPFPLPILGNIFQLDLKDIPKSFTKLAKRFGPVFTLHLGSRRIVVLHGYKAVKEVLLNHKNEFSGRGDIPVFQEYKNKGIIFNNGPTWKDVRRFSLSILRDWGMGKQGNEARIQREAQFLVEELKKTKGQPFDPTFLIGCAPCNVIADILFNKRFDYNDKKCLRLMSLFNENFYLLSTPWIQLYNNFADYLRYLPGSHRKIMKNVSEIKQYTLEKAKEHLQSLDINCARDVTDCLLIEMEKEKHSQEPMYTMENVSVTLADLFFAGTETTSTTLRYGLLILMKYPEIEEKLHEEIDRVIGPSRVPAVRDRLDMPYMDAVVHEIQRFINLVPSNLPHEATRDTVFQGYVIPKGTVVIPTLDSLLYDSHEFPDPEKFKPEHFLNENGKFKYSDYFKAFSAGKRVCVGEGLARMELFLLLSAILQHFNLKSLVDPKDIDLSPVTVGFGSIPPQFKLCVIPRS

How the values were obtained:
Experiment in all cases: cells, lysate or membranes named
[1] = substrate: Nc1ccccc1; details: 1 mM NADPH, 37°C, pH 7.4
[2] = substrate: O=[N+]([O-])c1ccc(O)cc1; details: 1 mM NADPH, 37°C, pH 7.4
[3] = substrate: C=Cc1ccccc1; details: pH 7.4; 37.0 °C
[4] = other: rat liver microsomes 0.5 mg/mL
[5] = other: rat liver mitochondria 2 mg/mL

Protein	Km [1, 4]	Km [2, 4]	kcat [2, 4]	Km [3]	Km [1, 5]	kcat [1, 5]	Km [2, 5]	kcat [2, 5]
B1	2.1 (0.010 to 5.2) μM	28 (24 to 34) μM	940 (880 to 1000) pmol/min/pmol CYP2E1	100 (31 to 2600) μM	–	–	–	–
B2	–	–	–	45 (36 to 56) μM	10 (7.5 to 12) μM	52 (49 to 54) pmol/min/pmol CYP2E1	28 (24 to 33) μM	110 (100 to 110) pmol/min/pmol CYP2E1
